One sequence from article PMC11039405 can be followed below.

For the data set, the target named is T1, AmrZ (Pseudomonas aeruginosa PAO1) (UniProt G3XCY4).
T1 sequence: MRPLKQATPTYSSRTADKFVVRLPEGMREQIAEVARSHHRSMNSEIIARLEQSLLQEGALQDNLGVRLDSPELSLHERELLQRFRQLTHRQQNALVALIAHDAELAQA
As to the kind of experiment: EMSA. For orientation: Mobility shift assays separate free from complexed probe on a gel.

Turning to “GTTATCTGCTTTCGGCCAAGAGATTTGGCTCCTTGCATATTATAAGAACCCCAACACTTCCCGTCGTACCTTGAATGCCCCGCCTAGCGGAGAGGCATGAATACGCTCCGTTTTATTGATTTTCAAAGCCATGAGCACGGAGTCGATTTTATAATAATCAGGATTATCCGACGTGCGCTGA (double strand) [exsA promoter]”, the binding result is “no binding”.
